Results published in patent publication US20240109957A1 (ANNEXON, published 2024).

Assays:
human complement C1q [1] = target: T1, human complement C1q (Homo sapiens, UniProt P02745 23-245; P02746 28-253; P02747 29-245); assay: Not stated; affinity given in descriptive text
T1 construct: In the assays this was native C1q in normal human serum or plasma; also called Human C1q

human complement C1q [2] = target: T1, human complement C1q; assay: cell-based or functional assay

T1 sequence (P02745 23-245 limits assumed, chain 1 of 3): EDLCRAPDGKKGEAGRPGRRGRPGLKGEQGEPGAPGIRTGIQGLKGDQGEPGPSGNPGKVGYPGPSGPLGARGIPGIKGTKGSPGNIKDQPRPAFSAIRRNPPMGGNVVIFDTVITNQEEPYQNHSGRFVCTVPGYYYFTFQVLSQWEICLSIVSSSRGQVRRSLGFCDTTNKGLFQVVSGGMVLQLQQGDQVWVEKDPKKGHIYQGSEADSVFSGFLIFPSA
T1 sequence (P02746 28-253 limits assumed, chain 2 of 3): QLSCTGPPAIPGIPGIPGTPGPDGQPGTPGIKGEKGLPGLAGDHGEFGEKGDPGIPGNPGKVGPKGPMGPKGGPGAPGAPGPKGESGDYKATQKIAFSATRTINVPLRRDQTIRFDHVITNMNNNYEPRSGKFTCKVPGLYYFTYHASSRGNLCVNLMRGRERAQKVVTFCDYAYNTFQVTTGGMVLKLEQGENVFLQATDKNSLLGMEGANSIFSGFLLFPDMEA
T1 sequence (P02747 29-245 limits assumed, chain 3 of 3): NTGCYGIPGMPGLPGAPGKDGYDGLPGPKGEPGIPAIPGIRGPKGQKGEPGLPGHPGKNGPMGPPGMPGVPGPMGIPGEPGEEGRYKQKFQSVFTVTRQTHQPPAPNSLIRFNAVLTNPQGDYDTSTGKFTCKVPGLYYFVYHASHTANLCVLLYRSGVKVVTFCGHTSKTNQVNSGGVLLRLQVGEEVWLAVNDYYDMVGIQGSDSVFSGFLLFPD

B1: FabA (anti-C1q antibody Fab fragment) (Fab)
heavy: QVQLVQSGAELKKPGASVKVSCKSSGYHFTSYWMHWVKQAPGQGLEWIGVIHPNSGSINYNEKFESRVTITVDKSTSTAYMELSSLRSEDTAVYYCAGERDSTEVLPMDYWGQGTTVTVSSASTKGPSVFPLAPSSKSTSGGTAALGCLVKDYFPEPVTVSWNSGALTSGVHTFPAVLQSSGLYSLSSVVTVPSSSLGTQTYICNVNHKPSNTKVDKKVEPKSCDKTHT
light: DVQITQSPSSLSASLGERATINCRASKSINKYLAWYQQKPGKAPKLLIYSGSTLQSGIPARFSGSGSGTDFTLTISSLEPEDFAMYYCQQHNEYPLTFGQGTKLEIKRTVAAPSVFIFPPSDEQLKSGTASVVCLLNNFYPREAKVQWKVDNALQSGNSQESVTEQDSKDSTYSLSSTLTLSKADYEKHKVYACEVTHQGLSSPVTKSFNRGEC
notes: Heavy chain Fab fragment truncated after the first constant domain of IgG1; also called anti-C1q Fab; anti-C1q monovalent Fab
- Kd (human complement C1q [1]): 0.01 nM
- IC50 for inhibition of complement deposition (C4 and C3d on human RBCs, flow cytometry) (human complement C1q [2]): ~10 nM
- IC50 for inhibition of hemolysis (CAD-sensitised human RBCs, normal human serum, absorbance at 415 nM) (human complement C1q [2]): ~10 nM
